Experimental data reported in PMC3792966.

Target: FevR of F. holarctica LVS fused to the Zif protein (F. holarctica LVS)
Assay: two-hybrid

“MglA/SspA complex of the bridge two-hybrid system (MglA of F. tularensis SCHU S4 fused to ω, with Ss” showed a β-galactosidase activity in strain AW23 after 300 min of 1070 AU and a β-galactosidase activity in strain AW24 after 300 min of 1300 AU.
